Experimental findings from the DeepSol protein solubility set are described below.

The data set is described as follows: soluble on expression in E. coli; label from the status in PepcDB or PDB records.
“MAHHHHHHMDPYPPSRVEVTVDDSFGRLEGLAEEHSIIEETWRKLMKGLERKILHNGLKFRLHNVVQYDNGKCHLQLGITDYKSSMGVATNVDYFLRSTSDGGTDRRKYLARALGIECFTTTSDEKAVMFCRSSLVSEYPGYYCFPGGHPEPQDILCQLPLSGPATGNHNNIDHNHNSVQNSDLLNDRLRREEAVSQLSGVNPEVIVQHLFDSAVMEVADELGVERTACRNRGLLSIVENMKNMKPDACFWVEVNQTAAEVQARFDSRVGFDAFESVPHSLVVVHLDDIVDCEGAELFIKDCLGGKVTPPSVACWLHGMACYRSLRGTLGKAQTHSFA”: the “soluble on expression in E. coli” value is given as “not soluble”.

As to “LGFNLKEAASIGIIGGADGPTTIYLTTKLAPHILSATAVAAYSYMSLVPLIQPPVIKALTTPEERRIRMEQLRPVSKREK”, the “soluble on expression in E. coli” value is reported as “not soluble”.

Consider “MARDVKKRGKPAYTNRRNRQKYLKKKDNKKKLSKSAVPIIKYTWDETKTPRENVRDMGIAFNPNDAVPIAEHRKEIIDAEPIDGVSIVVPKPEKKVTGRKKNEKQAAHIISNLEQQVKEEEEARAGQDRKFRLFHRETELCVYMLARHGEDFQAMTRDPKNLWQYTPKQWAKKIRTHKESEMCKFLETA”, for which the “soluble on expression in E. coli” value was “not soluble”.

Consider “ASLFPPGLHAIYGECRRLYPDQPNPLQVTAIVKYWLGGPDPLDYVSMYRNVGSPSANIPEHWHYISFGLSDLYGDNRVHEFTGTDGPSGFGFELTFRLKRETGESAPPTWPAELMQGLARYVFQSENTFCSGDHVSWHSPLDNSESRIQHMLLTEDPQMQPVQTPFGVVTFLQIVGVCTEELHSAQQWNGQGILELLRTVPIAGGPWLITDMRRGETIFEIDPHLQERVDKGIETD”, for which the “soluble on expression in E. coli” value is “soluble”.

For “MLTSAQTRSLFRNNIFYKYRTAISVCQSIGRSIRSEEDWAYTFTLDSRFPKYISDHRNLINESVSFYEKRIPDFPSEKSIQKLKNEIFRNLPFLEHHHHHH”, the “soluble on expression in E. coli” value is reported as “not soluble”.

With “SETPEVPVGSLIDFGPEAPTSSPLEAPPPVLQDGDGSLGDGASESETTESADSENDMGESPSHPSWDQDRRSSSNESFSSNQSTESTQDEETLALRDFMRGYVEKIFSGGEDLDQEEKAKFGEYCSSENGKGREWFARYVSAQRCNSKCVSEATFYRLVQSFAVVLFECHQMDDFGPAKNLMTMCFTYYHIGKPQLLPPESREKPAGSIDSYLKSANSWLAEKKDIAERLLKNTSARTENVKGFFGGLETKLKGPLARRNEEDENKPQEKRPRAVTAYSPEDEKKGEKIYLYTHLKQQPIW”, the “soluble on expression in E. coli” value is recorded as “soluble”.

Take “MAHHHHHHMEDITWVRSEVHSWIYDNLRAKWTSLVRQPTKLRTMFSGYRSTPTFVDRVLRRVGIANEIALTAMLRTWGPPELHAFVALYVRLRFPMIVALNKADLSTAADVAAALRQAYPHEVFVLMTARIEWLALQLSRKGYVDYTPGAASLSLKADCGEGADLEKRVRQELHDVTSFFRTTTSSPERLSSSVLRLTTTGVQDVLAAAMEACGVMLVYPVRAFHPVTSLAHCLTFKLGSSAERVFNALVHLQLLEGKLARFEMIDLAPVKRQLHQQLLASLATAPSNEASTPVPAQQQQCAVALPTSVQTLRKTEVIRSSAVLARILSNKRQLA”: the “soluble on expression in E. coli” value is recorded as “not soluble”.

For the sequence “MAHHHHHHMKQLLSPKTARHSRLFRLANRLAGQKGAPESDGERLSWVNSHVKRTQDMELSREEEALRERIMPLEVGDNAVVSNSQATHGNLFHFREYPMYPGEYVPAGHNTLSSLRDELRSDLTAQSLKEAWMRVSGGMYFKSIDDYYASVDGLDQEQLGEIVSALLPDLRKYEAQALVTKVLESLSKPADSPSRQLSRTITADAVGLDNAPGHYTNFLEWMGRMTETKAFKTEHALFEFSRRKFNREDVRVMFENYNLMSKATLEADSTDSYSHFYTVLHDFSRKVAGEDTRHQIGVRIDPAEVDPETGIAVGHGRADGQKYMFTALIRENRDHNGSVTLLGKPLSVAFDDKSWLMEMVLMPFDEAKLDFRDFDVNLISEGKAMPSFANEIAAFACRMAVANAITKLLPLARIPLKKAGLLSVDRRREPGQFPGFVDGKKNKRKFAKR”, the “soluble on expression in E. coli” value is “not soluble”.

As to “MTQQIKYKRVLLKLSGESLMGSDPFGINHDTIVQTVGEIAEVVKMGVQVGIVVGGGNIFRGVSAQAGSMDRATADYMGMMATVMNALALKDAFETLGIKARVQSALSMQQIAETYARPKAIQYLEEGKVVIFAAGTGNPFFTTDTAAALRGAEMNCDVMLKATNVDGVYTADPKKDPSATRYETITFDEALLKNLKVMDATAFALCRERKLNIVVFGIAKEGSLKRVITGEDEGTLVHC”, the “soluble on expression in E. coli” value was “soluble”.

Turning to “MKRGTITIDGKGNVHIPSTPVWMSACEIADLFGAFSGKVSVQIKTIFKEGLLMETEAMRTIQSGQGFIDLYGIEMITMLSFRIATPQAKTLRRWIIDRLSGKNSSSSPLIVCYTLGKRYN”, the “soluble on expression in E. coli” value is reported as “not soluble”.

As for “MGSDKIHHHHHHMGIDELYKKEFGIVAGVDEAGRGCLAGPVVAAAVVLEKEIEGINDSKQLSPAKRERLLDEIMEKAAVGIGIASPEEIDLYNIFNATKLAMNRALENLSVKPSFVLVDGKGIELSVPGTCLVKGDQKSKLIGAASIVAKVFRDRLMSEFHRMYPQFSFHKHKGYATKEHLNEIRKNGVLPIHRLSFEPVLELLTDDLLREFFEKGLISENRFERILNLLGARKSVVFRKERTNHNLPLF”, the “soluble on expression in E. coli” value was “soluble”.

For the sequence “MKKSITTLDLNLLLCLQLLMQERSVTKAAKRINVTPSAVSKSLAKLRAWFDDPLFVNSPLGLSPTPLMVSMEQNLAEWMQMSNLLLDKPHHQTPRGLKFELAAESPLMMIMLNALSKQIYQRYPQATIKLRNWDYDSLDAITRGEVDIGFSGRESHPRSRELLSSLPLAIDYEVLFSDVPCVWLRKDHPALHQTWNLDTFLRYPHISICWEQSDTWALDNVLQELGRERTIAMSLPEFEQSLFMAAQPDNLLLATAPRYCQYYNQLHQLPLVALPLPFDESQQKKLEVPFTLLWHKRNSHNPKIVWLRETIKNLYASMA”, the “soluble on expression in E. coli” value is listed as “soluble”.

As to “MGRGRAKAKQTKVARELKYSSPQTDFQRLQRELSGTGTDRLDGDGPSDDDSWNDEDDWRR”, the “soluble on expression in E. coli” value is given as “not soluble”.

Consider “MKYDLKYLSVPLPEEIQRVKEFGDFASADIAIDFWLTKELPQALKERLIIEKDVIKMMRMNEYPHSFAKADQMMRDTFQDYQTEELIRLKETGLVDWVYIDGEPYFQLRFLANLIKTNAAYVARLREAESNQLEILRKKELKENIEQMQKNGGRKVRTTIKATIQVKKEFERPGERVRVHLPLPKACQQQSEIEILATSPEATYIAAEDAPQRTLCFETILKENQTFTVEYCYVNRMVYQQLEENNVDKMQPSFDLEEQLPHIRFTPYLRNLADEIVGDESNPLKKARLIYDFVTTKIHYSFMREYFTISNISEYAATNLKGDCGVQAILFITLCRIAGIPAKWQSGLYVSTHYTGCHDWAQFYIKPYGWLFADLSFGGGAYRDGDRQRWNHYFGNLDVFRMVANSEIQADFQPAKMQLRADPIDNQRGEFEYENEGLPYACLIVSQERLSMEELPFD”, for which the “soluble on expression in E. coli” value is recorded as “not soluble”.

For “MKIITCYKCVPDEQDIAINNADGTLDFSKADSKISQYDLNAIEAACQLKQQLGDAQVVAMSVGGKALTNAKGRKDVLSRGPDELIVVIDDQFEQALPQHTATALAAAAQKSGFDLLICGDGSSDLYAQQVGLLVGEALNIPAINGVSKILSLTDSTLTVERELEDEVETLSIPLPAVIAVSTDINTPQIPSMKAILGAAKKPVQVWSPADIGLNSVPAYSAQQVAAPKQRERQRVVIEGDGEEQIAAFVENLRKII”, the “soluble on expression in E. coli” value is listed as “not soluble”.

Take “MAPKAEKKPSEKAPKADKKITKEGGSERKKKTKKSTETYKIYLFKVLKQVHPDIGISGKAMGIMNSFINDTFEKIALESSRLARYNKKPTITSREIQTAVRLVLPGELAKHAVSEGTKAVTKFTSS”: the “soluble on expression in E. coli” value is given as “not soluble”.

In the case of “MNESERKIVEEFQKETGINFKNEELLFRALCHSSYANEQNQAGRKDVESNEKLEFLGDAVLELFVCEILYKKYPEAEVGDLARVKSAAASEEVLAMVSRKMNLGKFLFLGKGEEKTGGRDRDSILADAFEALLAAIYLDQGYEKIKELFEQEFEFYIEKIMK”, the “soluble on expression in E. coli” value is listed as “not soluble”.

As for “MSLQLRLALNQIDSTVGDIAGNAEAILRWTRHSAEQGAHLVAFPEMALTGYPVEDLALRSSFVEASRTALRELAARLAEEGFGELPVLVGYLDRSESAQPKYGQPAGAPRNAAAVLHRGRVALTFAKHHLPNYGVFDEFRYFVPGDTMPIVRLHGVDIALAICEDLWQDGGRVPAARSAGAGLLLSVNASPYERDKDDTRLELVRKRAQEAGCTTAYLAMIGGQDELVFDGDSIVVDRDGEVVARAPQFSEGCVVLDLDLPAAEAEPPTGVVDDGLRIDRLVISEEPLPAYEAELAGGYADRLDADEEVYSALVVGLRAYVAKNGFRSVLIGLSGGIDSALVAAIACDALGAQNVYGVSMPSKYSSDHSKGDAAELARRTGLNFRTVSIEPMFDAYMASLGLTGLAEENLQSRLRGTTLMAISNQEGHIVLAPGNKSELAVGYSTLYGDSVGAYGPIKDVYKTSIFRLAEWRNRAAAERGQTPPIPEASITKPPSAELRPGQVDTDSLPDYPVLDAILELYVDRDTGADAIVAAGYDRELVVKTLRMVDTAEYKRRQYPPGTKISAKGFGKDRRLPITNRWREGHHHHHH”, the “soluble on expression in E. coli” value is “soluble”.

For “MGHHHHHHSHMGIKYHEESIHAAYVHVIENSRHYIYIENQFFISCADDKVVFNKIGDAIAQRILKAHRENQKYRVYVVIPLLPGFEGDISTGGGNALQAIMHFNYRTMCRGENSILGQLKAELGNQWINYISFCGLRTHAE”, the “soluble on expression in E. coli” value was “soluble”.

As to “MFIESRELVMKHRIPVAKTERYWKGLEEGKVFKTVCKSCGKEHHPPRAECLCGGEVEWVEITGEGVVEAFTTVHTIPAGFEWHREPYTIAIARFGEVRVMGWAKEVRVGDVVRLKPGKDETGVWKVYFEVVLEHHHHHH”, the “soluble on expression in E. coli” value is “soluble”.

Consider “MRTFTWRKGSLSKVNTCYVLAGGKSKRFGEDKLLYEIKGKKVIERVYETAKSVFKEVYIVAKDREKFSFLNAPVVLDEFEESASIIGLYTALKHAKEENVFVLSGDLPLMKKETVLYVLENFKEPVSVAKTEKLHTLVGVYSKKLLEKIEERIKKGDYRIWALLKDVGYNEVEIPEELRYTLLNMNTKEDLKRILAIENHY”, for which the “soluble on expression in E. coli” value is “soluble”.

As to “MGHHHHHHGSLVPRGSDVQELNSIIQRISKFDNILKDKTIINQQDLRQISWNGIPKIHRPVVWKLLIGYLPVNTKRQEGFLQRKRKEYRDSLKHTFSDQHSRDIPTWHQIEIDIPRTNPHIPLYQFKSVQNSLQRILYLWAIRHPASGYVQGINDLVTPFFETFLTEYLPPSQIDDVKIKDPSTYMVDEQITDLEADTFWCLTKLLEQITDNYIHGQPGILRQVKNLSQLVKRIDADLYNHFQNEHVEFIQFAFRWMNCLLMREFQMGTVIRMWDTYLSETSQEVTSSYSMSSNDIKPPVTPTEPRVASFVTPTKDFQSPTTALSNMTPNNAVEDSGKMRQSSLNEFHVFVCAAFLIKWSDQLMEMDFQETITFLQNPPTKDWTETDIEMLLSEAFIWQSLYKDATSHWL”, the “soluble on expression in E. coli” value is recorded as “soluble”.

For the sequence “MTVQTKTKGLAWQEKPLSDNERLKTESNFLRGTILDDLKDPLTGGFKGDNFQLIRFHGMYEQDDRDIRAERAEAKLEPLKFM”, the “soluble on expression in E. coli” value is recorded as “not soluble”.

With “MSLFAAQYIGNKSFNVVEGHAIAPQAGEVRLDVGYVGICGTDMHIYHGVMDQRVSIPQTIGHEISGVVAQIGEGVEGFTVGEKVVVRPLDWCGECPTCEAGLTHICQNLKFMGIDTPGAFQSSWTVKARTLHKLPAGVDLKQGALVEPLSVACHDVRRSRLKAGEKAVILGGGPIGQLVAAVAKSVGAEVLVSEPNDSRREFADELGVKSVNPMDTDLAAYVDQWTGTKGADVVFEVSGVLPAIQSMTQIAGRRGRIVMVAIHSTAPPIDLFQFFWKELELLGARVYEAADFDWAIELIASGQIDLKPFISSVSPLADIGSAFANMDGNPQGMKALVECNAEEGHHHHHH”, the “soluble on expression in E. coli” value is listed as “soluble”.
